Source: patent publication US20250009801A1

Key:
[1] = target: human CLDN18.2 on cells (human) (UniProt P56856); assay: flow cytometry on SUN601 (SNU601) cells
[2] = target: human CLDN18.2 on cells (human) (UniProt P56856); assay: flow cytometry on DAN-G18.2 cells
[3] = target: human CLDN18.2 on cells (human) (UniProt P56856); assay: flow cytometry on CHO-GS-hCLDN18.2 cells

EC50 [1]: 261 nM
EC50 [2]: 6.95 nM
EC50 [3]: 8.21 nM
B1: Hz69H9-2.1 PG Ab (antibody, human IgG1, kappa, V domains shown)
VH: QVQLVQSGAEVKKPGSSVKVSCKASGYSFSSYNIHWVRQAPGQGLEWMGYIAPFQGDARYNQKFKGRVTITADKSTSTAYMELSSLRSEDTAVYYCARLNRGNALDYWGQGTLVTVSS
VL: DIVMTQSPDSLAVSLGERATINCKSSQSLFQSGNQRNYLTWYQQKPGQPPKLLIYWASTRESGVPDRFSGSGSGTDFTLTISSLQAEDVAVYYCQNNYIYPLTFGGGTKVEIKR
